Measured values as given in patent US20230136228A1 (LAMKAP BIO ALPHA, published 2023).
Residue numbers refer to the chain shown, from its start. In names and notes the source's numbering stands.

B1: AB17L3-1/N (bispecific antibody, human IgG1, kappa, lambda, L234A L235A)
heavy: EVQLVESGGGLVQPGGSLKLSCAASGFTFNTYAMNWVRQAPGKGLEWVGRIRSKYNNYATYYADSVKDRFTISRDDSKNTAYLQMNSLKTEDTAVYYCVRHGNFGNSYVSWFAYWGQGTLVTVSSASTKGPSVFPLAPSSKSTSGGTAALGCLVKDYFPEPVTVSWNSGALTSGVHTFPAVLQSSGLYSLSSVVTVPSSSLGTQTYICNVNHKPSNTKVDKRVEPKSCDKTHTCPPCPAPEAAGGPSVFLFPPKPKDTLMISRTPEVTCVVVDVSHEDPEVKFNWYVDGVEVHNAKTKPREEQYNSTYRVVSVLTVLHQDWLNGKEYKCKVSNKALAAPIEKTISKAKGQPREPQVYTLPPSREEMTKNQVSLTCLVKGFYPSDIAVEWESNGQPENNYKTTPPVLDSDGSFFLYSKLTVDKSRWQQGNVFSCSVMHEALHNHYTQKSLSLSPG
light 1: EIVLTQSPATLSLSPGERATLSCRASQSVNSNLNWYQQKPGQAPRLLIYHGSNRATGIPARFSGSGSGTDFTLTISSLEPEDFAVYYCQQFDYFKEHNTFGQGTKVEIKRTVAAPSVFIFPPSDEQLKSGTASVVCLLNNFYPREAKVQWKVDNALQSGNSQESVTEQDSKDSTYSLSSTLTLSKADYEKHKVYACEVTHQGLSSPVTKSFNRGEC
light 2: QTVVTQEPSLTVSPGGTVTLTCRSSTGAVTTSNYANWFQQKPGQAPRGLIGGTNKRAPGTPARFSGSLLGGKAALTLSGAQPEDEAEYYCALWYKQRWVFGGGTKLTVLGQPKAAPSVTLFPPSSEELQANKATLVCLISDFYPGAVTVAWKADSSPVKAGVETTTPSKQSNNKYAASSYLSLTPEQWKSHRSYSCQVTHEGSTVEKTVAPTECS
notes: Kappa-lambda body, lead optimization wave 1
B2: AB71L3-1/N (bispecific antibody, human IgG1, kappa, lambda, L234A L235A)
heavy: B1 heavy
light 1: B1 light 1 with G51S, A55P, T56H
light 2: B1 light 2
notes: Kappa-lambda body, lead optimization wave 2
B3: AB72L3-1/N (bispecific antibody, human IgG1, kappa, lambda, L234A L235A)
heavy: B1 heavy
light 1: B1 light 1 with G51S, S52T, A55P, T56R, H97Y
light 2: B1 light 2
notes: as for B2
B4: AB73L3-1/N (bispecific antibody, human IgG1, kappa, lambda, L234A L235A)
heavy: B1 heavy
light 1: B1 light 1 with G51S, S52N, A55P, T56H, K95R, H97Y
light 2: B1 light 2
notes: as for B2
B5: AB1L3-1/N (bispecific antibody, human IgG1, kappa, lambda, L234A L235A)
heavy: B1 heavy
light 1: B1 light 1 with Y93L, F94R, K95H
light 2: B1 light 2
notes: Kappa-lambda body: common heavy chain (hIgG1 L234A+L235A+P329A), kappa CEA light chain AB1, lambda CD3 light chain L3-1 (1A4); also called parental KL bispecific antibody

The binders below were run against T1, human CEACAM5 (carcinoembryonic antigen, CEA), cell surface (human, UniProt P06731 35-685) (assay: flow cytometry, MKN-45 cells).
T1 construct: whole, on cells; also called CD66e
T1 sequence (looked up): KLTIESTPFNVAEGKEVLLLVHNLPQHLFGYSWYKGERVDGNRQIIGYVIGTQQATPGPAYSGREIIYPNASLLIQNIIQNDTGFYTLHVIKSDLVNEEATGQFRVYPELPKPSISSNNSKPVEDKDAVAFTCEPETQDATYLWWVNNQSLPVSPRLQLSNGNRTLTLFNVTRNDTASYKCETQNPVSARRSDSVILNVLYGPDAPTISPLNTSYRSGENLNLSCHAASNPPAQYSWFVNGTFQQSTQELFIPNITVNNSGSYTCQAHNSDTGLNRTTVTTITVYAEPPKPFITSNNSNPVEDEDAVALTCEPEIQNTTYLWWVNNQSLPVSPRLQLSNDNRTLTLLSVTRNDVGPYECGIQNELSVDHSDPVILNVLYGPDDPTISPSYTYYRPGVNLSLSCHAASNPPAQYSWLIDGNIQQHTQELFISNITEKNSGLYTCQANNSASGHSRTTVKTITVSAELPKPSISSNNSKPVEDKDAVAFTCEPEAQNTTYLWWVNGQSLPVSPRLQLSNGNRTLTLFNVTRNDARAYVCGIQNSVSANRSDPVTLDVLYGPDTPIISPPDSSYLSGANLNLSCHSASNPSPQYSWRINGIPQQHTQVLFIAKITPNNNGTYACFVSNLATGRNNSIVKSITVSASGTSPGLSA
Source text: Examples of cells that can be used include CEACAM5-positive cell lines such as the gastric adenocarcinoma cell line MKN45 (expressing 155′000 CEACAM5 molecules per cell), or the pancreatic adenocarcinoma cell line HPAF-II (expressing 108′000 CEACAM5 molecules per cell) or the colorectal adenocarcinoma cell line LS174T (expressing 26′000 CEACAM5 molecules per cell) and CEACAM5-negative cell lines, such as the lung carcinoma cell line A549 and the MKN45 CEACAM5-knock out cell line generated by CRISPR-CAS9 methodology. Cell staining and binding assessment can be performed as described above. Binding of the bsAb of the invention at 200 nM, 1000 nM and 5000 nM is 40% and higher compared to binding of TCB2014 (see Table 4 and also FIGS. 11 and 14).

Binder | EC50 [nM] | Top MFI value [MFI] | binding higher than TCB2014 (at 200 nM, 1000 nM and 5000 nM) [%]
B1 | 59.2 | 862000 | ≥ 40
B2 | 34.1 | 833000 | ≥ 40
B3 | 24.5 | 963000 | ≥ 40
B4 | 27.8 | 921000 | ≥ 40

These binders were tested against T1, human CEACAM5 (carcinoembryonic …) (assay: flow cytometry, CEA positive cells).

Binder | binding higher than TCB2014 (at 200 nM) [%]
B2 | ≥ 40
B3 | ≥ 40
B4 | ≥ 40

Each binder was assayed against T1, human CEACAM5 (carcinoembryonic …) (assay: flow cytometry, transfected PEAK cells, 10 mcg/ml).
Source text: (§1) Vectors encoding the full-length version of human CEACAM 1, 3, 4, 5, 6, 7, 8, 18, 19, 20 and […] are used to express these proteins at the surface of PEAK and/or CHO cells as described in Example 1. Similarly, vectors encoding the full-length version of cyno CEACAM 5 and 6 are also used to express these proteins at the surface of PEAK and/or CHO cells. Non-transfected PEAK and/or CHO cells are used as negative control. Cells are harvested, counted, checked for viability and resuspended at 3×10⁶ cells/ml in FACS buffer (PBS 2% BSA, 0.1% NaN₃). 100 μl of the cell suspension are distributed in V-bottom 96-well plates (3×10⁵ cells/well). The supernatant is removed by centrifugation 3 minutes at 4° C., 1300 rpm and the cells incubated for 15 minutes at 4° C. with increasing concentrations of the antibody according to the invention. The antibodies carrying the anti-CEACAM5 arms to test are diluted in FACS buffer and the concentration range is 30 pM-500 nM. Cells are washed twice with cold FACS buffer and re-incubated for further 15 minutes at 4° C. with a compatible anti-human IgG secondary antibody. Cells are washed twice with cold FACS buffer and resuspended in 300 μl FACS buffer with 1:1500-diluted TOPRO-3 (Invitrogen). Fluorescence is measured using a FACSCalibur™ (BD Biosciences) or a Cytoflex Platform (Beckman Coulter). Dose-response binding curves are fitted using GraphPad Prism8 software. In the same manner, CEACAM1, CEACAM6 and other CEACAMs can be characterized.
(§2) For the bispecific antibodies AB17L3-1/N, AB71L3-1/N, AB72L3-1/N, AB73L3-1/N the MFI measured for binding to CEACAM5 transfected cells was found between 29000 and 41000 (Table 2). In contrast MFI found by using PEAK cells transfected with CEACAM 1,3,4,6,8 were found below 1000 with the only exception of a strong signal for AB72L3-1/N on CEACAM8 transfected cells. When MFI values obtained on transfected cells expressing any given CEACAM are divided by the values obtained on WT PEAK cells, “factors to PEAK WT” can be calculated (Table 3).

Binder | MFI [MFI]
B1 | 29200
B5 | 7750
B2 | 35100
B3 | 41000
B4 | 36200

Each binder was assayed against T2, human CEACAM4 (human, UniProt O75871 36-244) (assay: flow cytometry, transfected PEAK cells, 10 mcg/ml).
T2 construct: whole, on cells
T2 sequence (looked up): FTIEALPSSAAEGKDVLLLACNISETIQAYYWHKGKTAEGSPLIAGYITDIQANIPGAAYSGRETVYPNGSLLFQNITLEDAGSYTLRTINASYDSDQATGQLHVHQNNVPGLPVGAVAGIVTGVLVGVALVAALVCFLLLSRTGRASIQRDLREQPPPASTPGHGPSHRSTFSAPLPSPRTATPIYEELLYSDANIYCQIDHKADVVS
Source text: as §1, §2

Binder | MFI [MFI]
B1 | 431
B5 | 330
B2 | 323
B3 | 402
B4 | 352

Each binder was assayed against T3, human CEACAM3 (human, UniProt P40198 35-252) (assay: flow cytometry, transfected PEAK cells, 10 mcg/ml).
T3 construct: whole, on cells
T3 sequence (looked up): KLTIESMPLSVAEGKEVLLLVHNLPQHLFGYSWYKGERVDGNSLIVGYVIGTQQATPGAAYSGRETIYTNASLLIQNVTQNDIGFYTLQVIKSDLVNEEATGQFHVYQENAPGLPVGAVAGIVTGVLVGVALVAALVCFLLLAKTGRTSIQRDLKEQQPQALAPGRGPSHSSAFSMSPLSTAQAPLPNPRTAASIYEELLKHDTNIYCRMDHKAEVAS
Source text: as §1, §2

Binder | MFI [MFI]
B1 | 633
B5 | 358
B2 | 358
B3 | 474
B4 | 465
